Test results reported in patent US20220204643A1 (published 2022).
Values belong to the binder of their own block, whether it stands above or below them.

What was measured:
Test in all cases: protein array
[1] = biological target: T1, microtubule associated scaffold protein 2, transcript variant 2 (human, UniProt Q5JR59 1040-1369)
T1 construct: on protein array; also called MTUS2
T1 sequence: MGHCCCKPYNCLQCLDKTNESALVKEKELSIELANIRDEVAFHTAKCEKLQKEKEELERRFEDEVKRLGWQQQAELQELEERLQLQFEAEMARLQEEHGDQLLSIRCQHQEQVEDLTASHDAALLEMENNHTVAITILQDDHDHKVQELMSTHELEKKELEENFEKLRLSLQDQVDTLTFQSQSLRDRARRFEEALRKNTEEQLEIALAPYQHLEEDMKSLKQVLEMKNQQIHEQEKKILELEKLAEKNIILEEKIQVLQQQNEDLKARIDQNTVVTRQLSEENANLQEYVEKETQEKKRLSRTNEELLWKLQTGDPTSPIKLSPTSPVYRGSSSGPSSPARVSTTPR

zinc finger protein 296 = biological target: T2, zinc finger protein 296 (human, UniProt Q8WUU4 1-475)
T2 construct: on protein array; also called ZNF296
T2 sequence: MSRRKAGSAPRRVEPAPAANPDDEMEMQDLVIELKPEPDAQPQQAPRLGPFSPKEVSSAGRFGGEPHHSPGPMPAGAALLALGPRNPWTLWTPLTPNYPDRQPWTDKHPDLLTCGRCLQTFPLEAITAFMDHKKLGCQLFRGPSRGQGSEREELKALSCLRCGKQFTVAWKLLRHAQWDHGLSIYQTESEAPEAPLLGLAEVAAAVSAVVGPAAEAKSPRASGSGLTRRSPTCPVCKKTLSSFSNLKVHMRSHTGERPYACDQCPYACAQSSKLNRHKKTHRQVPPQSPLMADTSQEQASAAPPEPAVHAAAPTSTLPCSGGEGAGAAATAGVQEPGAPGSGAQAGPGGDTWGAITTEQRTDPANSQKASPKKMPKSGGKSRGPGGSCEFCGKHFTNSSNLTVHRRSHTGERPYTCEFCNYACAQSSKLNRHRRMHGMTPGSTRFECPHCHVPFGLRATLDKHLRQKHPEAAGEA

[2] = biological target: phosphodiesterase 5A, transcript variant 1 (human, UniProt O76074 1-875)
[3] = biological target: T3, arginine and glutamate rich 1 (human, UniProt Q9NWB6 1-273)
T3 construct: on protein array; also called ARGLU1
T3 sequence: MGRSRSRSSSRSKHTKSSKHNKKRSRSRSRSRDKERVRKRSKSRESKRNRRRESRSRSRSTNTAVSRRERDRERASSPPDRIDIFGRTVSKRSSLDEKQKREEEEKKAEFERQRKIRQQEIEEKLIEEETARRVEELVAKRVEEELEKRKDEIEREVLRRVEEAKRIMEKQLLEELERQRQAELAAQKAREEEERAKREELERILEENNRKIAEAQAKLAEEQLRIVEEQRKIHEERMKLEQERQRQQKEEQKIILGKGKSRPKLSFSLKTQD

[4] = biological target: T4, SAS-6 centriolar assembly protein, transcript variant 2 (human, UniProt Q6UVJ0 168-657)
T4 construct: on protein array; also called SASS6
T4 sequence: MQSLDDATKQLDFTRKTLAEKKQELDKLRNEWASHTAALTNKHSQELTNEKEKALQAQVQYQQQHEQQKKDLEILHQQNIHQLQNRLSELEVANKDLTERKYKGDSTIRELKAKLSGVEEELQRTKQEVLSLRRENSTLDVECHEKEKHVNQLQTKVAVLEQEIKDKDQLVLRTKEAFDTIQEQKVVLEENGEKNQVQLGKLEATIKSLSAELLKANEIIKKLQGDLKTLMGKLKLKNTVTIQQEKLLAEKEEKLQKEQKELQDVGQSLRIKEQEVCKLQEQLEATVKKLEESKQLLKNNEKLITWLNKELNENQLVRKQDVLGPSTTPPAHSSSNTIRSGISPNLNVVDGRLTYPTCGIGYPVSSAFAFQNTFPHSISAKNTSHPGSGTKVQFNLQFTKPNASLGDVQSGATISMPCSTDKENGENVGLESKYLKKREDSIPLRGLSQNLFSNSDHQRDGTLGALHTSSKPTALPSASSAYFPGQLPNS

[5] = biological target: T5, anterior gradient 3, protein disulphide isomerase family member (human, UniProt Q8TD06 22-166)
T5 construct: on protein array; also called AGR3
T5 sequence: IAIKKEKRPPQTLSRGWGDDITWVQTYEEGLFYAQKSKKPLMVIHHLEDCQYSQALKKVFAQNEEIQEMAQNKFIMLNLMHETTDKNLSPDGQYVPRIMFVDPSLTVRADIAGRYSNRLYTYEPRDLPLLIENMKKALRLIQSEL

[6] = biological target: T6, Src like adaptor, transcript variant 1 (human, UniProt Q13239 2-276)
T6 construct: on protein array; also called SLA
T6 sequence: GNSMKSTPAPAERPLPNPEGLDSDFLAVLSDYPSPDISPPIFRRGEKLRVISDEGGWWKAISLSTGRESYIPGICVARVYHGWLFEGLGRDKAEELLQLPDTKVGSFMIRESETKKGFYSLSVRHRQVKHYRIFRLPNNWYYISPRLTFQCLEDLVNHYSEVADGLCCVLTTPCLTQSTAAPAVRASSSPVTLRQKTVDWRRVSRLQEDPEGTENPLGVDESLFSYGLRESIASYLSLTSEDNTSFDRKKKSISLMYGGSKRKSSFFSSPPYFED

[7] = biological target: T7, proteasome 26S subunit, non-ATPase 4, transcript variant 2 (human, UniProt P55036 1-377)
T7 construct: on protein array; also called PSMD4
T7 sequence (P55036 whole entry, change not shown): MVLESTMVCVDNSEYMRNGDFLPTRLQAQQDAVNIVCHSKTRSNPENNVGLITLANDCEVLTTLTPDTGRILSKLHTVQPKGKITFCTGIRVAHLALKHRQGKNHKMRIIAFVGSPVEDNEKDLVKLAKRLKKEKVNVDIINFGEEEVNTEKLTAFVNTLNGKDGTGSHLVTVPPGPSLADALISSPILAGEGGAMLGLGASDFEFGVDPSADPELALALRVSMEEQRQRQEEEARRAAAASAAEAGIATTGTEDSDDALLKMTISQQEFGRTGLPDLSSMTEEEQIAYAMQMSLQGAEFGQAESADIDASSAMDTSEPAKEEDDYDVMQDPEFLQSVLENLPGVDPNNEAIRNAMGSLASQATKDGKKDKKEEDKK

Zinc finger protein 699 = biological target: T8, Zinc finger protein 699 (human, UniProt Q32M78 1-642)
T8 construct: on protein array; also called ZNF699
T8 sequence (Q32M78 whole entry): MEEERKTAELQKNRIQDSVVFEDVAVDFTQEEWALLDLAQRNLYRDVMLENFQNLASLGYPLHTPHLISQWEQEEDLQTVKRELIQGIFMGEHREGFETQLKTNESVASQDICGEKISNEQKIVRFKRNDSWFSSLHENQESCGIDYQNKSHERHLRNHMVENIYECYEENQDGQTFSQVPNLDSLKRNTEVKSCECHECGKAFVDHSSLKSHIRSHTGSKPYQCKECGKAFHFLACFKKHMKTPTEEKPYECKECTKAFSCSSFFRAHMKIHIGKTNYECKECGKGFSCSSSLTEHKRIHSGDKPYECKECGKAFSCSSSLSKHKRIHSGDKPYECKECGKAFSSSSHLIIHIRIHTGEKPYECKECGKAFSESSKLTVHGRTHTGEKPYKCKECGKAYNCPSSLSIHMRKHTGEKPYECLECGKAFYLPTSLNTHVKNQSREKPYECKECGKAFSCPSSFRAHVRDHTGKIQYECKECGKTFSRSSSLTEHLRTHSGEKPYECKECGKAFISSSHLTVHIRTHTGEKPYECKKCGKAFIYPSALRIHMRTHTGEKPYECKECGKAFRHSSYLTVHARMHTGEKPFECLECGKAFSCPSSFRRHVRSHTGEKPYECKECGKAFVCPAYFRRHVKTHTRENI

[8] = biological target: T9, zinc finger protein 431, transcript variant 2 (human, UniProt Q8TF32 1-576)
T9 construct: on protein array; also called ZNF431
T9 sequence (Q8TF32 other isoform, or with tags, fused parts or gaps mutant limits assumed): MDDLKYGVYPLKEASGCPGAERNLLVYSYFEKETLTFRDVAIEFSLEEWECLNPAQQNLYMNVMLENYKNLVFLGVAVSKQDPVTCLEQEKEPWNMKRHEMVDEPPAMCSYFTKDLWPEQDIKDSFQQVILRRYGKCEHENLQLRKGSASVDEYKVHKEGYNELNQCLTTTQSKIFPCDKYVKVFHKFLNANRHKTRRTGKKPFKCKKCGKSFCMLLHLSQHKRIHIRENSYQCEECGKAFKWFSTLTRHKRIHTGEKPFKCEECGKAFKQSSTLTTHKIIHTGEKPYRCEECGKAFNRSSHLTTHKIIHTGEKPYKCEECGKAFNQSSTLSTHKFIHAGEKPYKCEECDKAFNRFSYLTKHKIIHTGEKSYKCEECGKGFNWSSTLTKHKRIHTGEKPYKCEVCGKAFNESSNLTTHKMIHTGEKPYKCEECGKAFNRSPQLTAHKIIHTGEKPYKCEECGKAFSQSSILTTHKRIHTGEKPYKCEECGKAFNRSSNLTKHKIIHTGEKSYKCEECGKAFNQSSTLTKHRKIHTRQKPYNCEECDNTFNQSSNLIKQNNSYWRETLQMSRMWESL

nudix hydrolase 21 = biological target: T10, nudix hydrolase 21 (human, UniProt O43809 2-227)
T10 construct: on protein array; also called NUDT21
T10 sequence (O43809 2-227 limits assumed): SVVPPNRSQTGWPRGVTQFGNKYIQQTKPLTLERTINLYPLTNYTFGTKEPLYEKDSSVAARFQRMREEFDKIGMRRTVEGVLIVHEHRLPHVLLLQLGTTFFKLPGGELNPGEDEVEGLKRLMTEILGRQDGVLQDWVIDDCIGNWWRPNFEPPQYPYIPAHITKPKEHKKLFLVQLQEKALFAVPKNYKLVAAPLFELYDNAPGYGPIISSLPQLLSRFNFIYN

Bcl2 like 1 = biological target: T11, Bcl2 like 1 (human, UniProt Q07817 1-233)
T11 construct: on protein array; also called BCL2L1
T11 sequence (Q07817 whole entry): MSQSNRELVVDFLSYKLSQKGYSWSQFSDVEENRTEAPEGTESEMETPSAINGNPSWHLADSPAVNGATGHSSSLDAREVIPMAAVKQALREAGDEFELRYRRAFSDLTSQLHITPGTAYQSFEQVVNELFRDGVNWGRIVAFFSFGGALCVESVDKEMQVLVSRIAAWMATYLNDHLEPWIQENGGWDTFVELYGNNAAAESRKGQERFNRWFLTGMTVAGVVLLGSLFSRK

Ubiquilin 3 = biological target: T12, Ubiquilin 3 (human, UniProt Q9H347 1-655)
T12 construct: on protein array; also called UBQLN3
T12 sequence: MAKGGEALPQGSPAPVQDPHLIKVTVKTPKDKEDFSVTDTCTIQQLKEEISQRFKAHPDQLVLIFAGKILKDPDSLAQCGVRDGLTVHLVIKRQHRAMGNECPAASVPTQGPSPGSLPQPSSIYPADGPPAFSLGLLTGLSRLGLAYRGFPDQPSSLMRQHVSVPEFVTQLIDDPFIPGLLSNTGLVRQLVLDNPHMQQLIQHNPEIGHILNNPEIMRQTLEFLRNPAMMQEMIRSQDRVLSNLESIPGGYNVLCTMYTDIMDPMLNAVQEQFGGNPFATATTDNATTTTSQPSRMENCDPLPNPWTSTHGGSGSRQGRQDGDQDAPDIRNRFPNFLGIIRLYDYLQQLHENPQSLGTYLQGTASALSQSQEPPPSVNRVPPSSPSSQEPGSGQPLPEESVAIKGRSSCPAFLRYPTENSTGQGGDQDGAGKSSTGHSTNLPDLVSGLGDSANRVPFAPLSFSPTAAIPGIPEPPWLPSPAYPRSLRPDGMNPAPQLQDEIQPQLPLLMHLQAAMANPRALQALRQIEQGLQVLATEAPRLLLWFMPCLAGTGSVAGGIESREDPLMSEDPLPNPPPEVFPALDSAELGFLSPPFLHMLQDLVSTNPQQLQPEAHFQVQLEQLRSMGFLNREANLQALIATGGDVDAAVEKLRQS

ubiquilin 2 = biological target: T13, ubiquilin 2 (human, UniProt Q9UHD9 2-624)
T13 construct: on protein array; also called UBQLN2
T13 sequence (Q9UHD9 2-624 limits assumed): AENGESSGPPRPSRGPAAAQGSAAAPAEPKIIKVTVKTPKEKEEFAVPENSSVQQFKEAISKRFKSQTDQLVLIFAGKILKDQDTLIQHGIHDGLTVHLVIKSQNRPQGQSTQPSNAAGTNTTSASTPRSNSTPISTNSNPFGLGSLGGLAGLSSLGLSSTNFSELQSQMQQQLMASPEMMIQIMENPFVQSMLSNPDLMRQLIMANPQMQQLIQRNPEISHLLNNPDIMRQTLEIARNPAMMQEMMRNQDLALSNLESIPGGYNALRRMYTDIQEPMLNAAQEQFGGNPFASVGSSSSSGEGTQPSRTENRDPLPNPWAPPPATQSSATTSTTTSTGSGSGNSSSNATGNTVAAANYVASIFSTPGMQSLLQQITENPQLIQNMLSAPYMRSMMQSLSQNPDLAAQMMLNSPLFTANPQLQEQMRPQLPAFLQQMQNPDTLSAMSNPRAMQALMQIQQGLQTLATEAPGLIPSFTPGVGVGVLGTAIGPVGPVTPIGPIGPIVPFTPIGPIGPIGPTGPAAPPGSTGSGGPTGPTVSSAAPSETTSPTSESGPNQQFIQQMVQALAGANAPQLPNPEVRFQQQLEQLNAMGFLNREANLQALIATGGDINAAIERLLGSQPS

[9] = biological target: T14, ubiquilin 1, transcript variant 2 (human, UniProt Q9UMX0 2-589)
T14 construct: on protein array; also called UBQLN1
T14 sequence (Q9UMX0 other isoform, or with tags, fused parts or gaps mutant limits assumed): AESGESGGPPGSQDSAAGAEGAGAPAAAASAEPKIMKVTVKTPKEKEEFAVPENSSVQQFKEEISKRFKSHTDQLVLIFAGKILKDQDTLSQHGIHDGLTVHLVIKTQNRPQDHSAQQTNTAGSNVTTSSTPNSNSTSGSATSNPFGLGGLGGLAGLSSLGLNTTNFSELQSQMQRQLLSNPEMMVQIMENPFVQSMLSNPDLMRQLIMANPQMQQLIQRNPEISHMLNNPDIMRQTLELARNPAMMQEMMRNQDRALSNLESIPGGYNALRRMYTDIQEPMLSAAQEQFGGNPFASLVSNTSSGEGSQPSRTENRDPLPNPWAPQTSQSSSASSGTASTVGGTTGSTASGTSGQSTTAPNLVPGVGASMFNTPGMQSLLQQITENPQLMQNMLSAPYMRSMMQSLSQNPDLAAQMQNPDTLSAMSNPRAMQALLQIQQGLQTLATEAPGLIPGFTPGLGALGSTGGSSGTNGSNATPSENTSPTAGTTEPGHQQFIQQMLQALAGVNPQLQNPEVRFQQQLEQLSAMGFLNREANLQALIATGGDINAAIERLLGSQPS

binding result [1]: binds
B1: TMEL1027 (antibody, V domains shown)
VH: QVQLVQSGAEVKKPGASVKVSCKASGYTFTVYYMHWVRQAPGQGLEWMGRINPNSGGTNYAQKFQGRVTMTRDTSISTAYMELSRLTSDDTAVYYCARVVVVGTDYGMDVWGQGTTVTVSS
VL: VSSELTQDPAVSVALGQTVRITCQGDSLRSYYASWYQQRPGQAPVLVIYGKNNRPSGIPDRFSGSSSGNTASLTITGAQAEDEADYYCNSRDSSGNHVFGTGTKVTVLG
notes: VH/VL tied via antigen in summary, not by name in this stretch

binding result (zinc finger protein 296): binds
binding result [2]: binds
B2: TMEL1028 (antibody, V domains shown)
VH: QVQLVQSGAEVKKPGASVKVSCKASGYTFTSYGISWVRQAPGQGLEWMGWISAYNGNTNYAQKLQGRVTMTTDTSTSTAYMELRSLTSDDTAVYYCARDQGLERANWFDPWGQGTLVTVSS
VL: not shown
notes: as for B1

binding result [3]: binds
binding result [4]: binds
B3: TMEL1031 (antibody, V domains shown)
VH: EVQLVESGGGLVQPGGSLRLSCAASGFTVSSNYMSWVRQAPGKGLEWVSVIYSGGSTYYADSVKGRFTISRDNSKNTLSLQMNSLRAEDTAVYYCARESSAAGYDYWGQGTLVTVSS
VL: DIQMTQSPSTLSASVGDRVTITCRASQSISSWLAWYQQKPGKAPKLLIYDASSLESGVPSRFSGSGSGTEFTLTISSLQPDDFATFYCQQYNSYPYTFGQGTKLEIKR
notes: as for B1

B4: TMEL1020 (antibody, V domains shown)
VH: QVHLVQSGAEVKKPGASVKVSCKASGYTFTNYFIHWVRQAPGQGPEWMGVINPSFGSTTYAQKLQGRVTMTRETSTSTVYMELSSLRSEDTAVYYCARESLDSASYSTIAHWGQGTLVTVSS
VL: EIVLAQSPGTLYLSPGERATLSCRASQSVRGNYLAWYQQRPGQAPRLLIYGASSRATGIPDRFGGSGSGTDFTLTITRLLPEDFAVYYCHQYGSSPRTFGQGTKVEIKR
notes: as for B1
binding result [5]: binds

binding result [6]: binds
binding result [7]: binds
B5: TMEL1032 (antibody, V domains shown)
VH: QVQLVQSGAEVRKPGASVKVSCKASGYTFTTYYIHWVRQAPGQGLEWMGLINPNGGTTNYAQKFQGRLSMTTDTSTNTVYMELSSLRSEDTAVYYCARKLMSGIVSRGWFDPWGQGTLVTVSS
VL: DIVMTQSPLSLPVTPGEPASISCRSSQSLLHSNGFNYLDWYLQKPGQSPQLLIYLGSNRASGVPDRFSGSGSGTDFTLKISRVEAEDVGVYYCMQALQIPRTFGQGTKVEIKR
notes: as for B1

binding result (Zinc finger protein 699): binds
binding result [8]: binds
binding result (nudix hydrolase 21): binds
B6: TMEL1033 (antibody, V domains shown)
VH: PVQLQESGPGLVKPSETLSLTCTVSGGSVSSGSYYWSWIRQPPGKGLEWIGYIYYSGSTNYNPSLKSRVTISVDTSKNQFSLKLSSVTAADTAVYYCARDRGDYVTHWFDPWGQGTLVTVSS
VL: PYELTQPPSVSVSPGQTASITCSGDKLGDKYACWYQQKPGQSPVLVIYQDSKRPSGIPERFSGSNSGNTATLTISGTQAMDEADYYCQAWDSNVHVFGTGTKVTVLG
notes: as for B1

binding result (Bcl2 like 1): binds
B7: TMEL1030 (antibody, V domains shown)
VH: QVQLQESGPGLVKPSGTLSLTCAVSGGSISSSNCWSWVRQPPGKGLEWLGEICHSGSTSYNPSLKSRVTISVDKSKNQFSLKLRSVTAADTAVYYCARESPLTVVFDYWGQGTLVTVSS
VL: DIQMTQSPSSLSASVGDRVTITCRASQGIRNDLGWFQQKPGKAPKRLIYAASNLPSGVSSRFSGSGSGTEFTLTISSLQPEDFATYYCLQHNNYPLTFGQGTKVEFKR
notes: as for B1

binding result (Ubiquilin 3): binds
binding result (ubiquilin 2): binds
binding result [9]: binds
B8: TMEL1018 (antibody, V domains shown)
VH: PLQLQESGPGLVKPSETLSLTCTVSGGSISSSSYYWGWIRQPPGKGLEWIGSIYYSGSTYYNPSLKSRVTISVDTSKNQFSLKLSSVTAADTAVYSCARLLVGGAFDIWGQGTMVTVSS
VL: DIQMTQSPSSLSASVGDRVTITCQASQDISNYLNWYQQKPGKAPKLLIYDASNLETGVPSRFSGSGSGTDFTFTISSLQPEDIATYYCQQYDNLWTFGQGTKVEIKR
notes: as for B1
